These results are taken from patent EP3199551.

Read-outs that look alike come from different tables or passages of the source.

Assay [1] deals with T1, human BTLA (human, UniProt Q7Z6A9). Briefly: SPR. In general terms: SPR reads the build-up and loss of mass on a sensor chip optically.
The target in assay [2] is T1, human BTLA. Briefly: SPR. The source holds these as a separate data set.
Assay [3] has as its target T1, human BTLA. The experiment in a line: FACS, 4C.

T1 sequence (Q7Z6A9 31-157): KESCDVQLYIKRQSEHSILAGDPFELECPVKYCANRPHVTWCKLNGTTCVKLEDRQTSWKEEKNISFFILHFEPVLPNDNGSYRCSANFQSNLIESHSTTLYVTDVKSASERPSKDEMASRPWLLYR

B1: hu Mab8D5 (IgG4 S228P) (antibody, V domains shown)
VH: EVQLVESGGGLVQPGGSLRLSCAASGFTISSYDMHWVRQATGKGLEWVSVIGPAGDTYYPGSVKGRFTISRENAKNSLYLQMNSLRAGDTAVYYCAREGMAAHNYYGMDVWGQGTTVTVSS
VL: not shown
For the molecule B1, the Kd (as a rule, the concentration at which binding is half-saturated) came out at 2.99 nM with human BTLA [1] and 2.4 nM in the assay with human BTLA [2]. Besides, in the assay with human BTLA [3], the EC50 – broadly, the concentration that produces a half-maximal response – was about 12 nM.

B2: hu Mab8D5 G1 (IgG1) (antibody, V domains shown)
VH: B1 VH
VL: not shown
For B2, the EC50 in the assay with human BTLA [3] was about 12 nM.
